# Assay results taken from patent US20100159482A1 (LIFE TECHNOLOGIES, published 2010).
# The star is where a group is joined. MeOSuc = COC(=O)CCC(=O)*; CH2Cl = ClC*
# Tests used:
# proteinase K [1] = target: T1, proteinase K (UniProt P06873 106-384); assay: computed, not measured: CDOCKER docking on PDB 3PRK, MM-PBSA rescoring, average of three poses
# Experimental: Based on the studies cited in the previous examples, a study was carried out to examine the change in total binding free energy of peptide inhibitor to proteinase K to form the peptide-inhibitor complex. The molecular docking of inhibitors MeOSuc-AAPV-CH₂Cl (SEQ ID NO:2), MeOSuc-AAPL-CH₂Cl (SEQ ID NO:10), MeOSuc-AAAPV-CH₂Cl (SEQ ID NO:8), MeOSuc-AAAPL-CH₂Cl (SEQ ID NO:7), MeOSuc-AAAPF-CH₂Cl (SEQ ID NO:9), MeOSuc-AAPA-CH₂Cl (SEQ ID NO:1), and MeOSuc-AAPF-CH₂Cl (SEQ ID NO:5) into the binding site of Proteinase K was performed using CDOCKER of Discovery Studio V2.01 (1. (Accelrys Software Inc., Discovery Studio Modeling Environment, Release 2.01, San Diego: Accelrys Software Inc., 2008., trial version) which uses a CHARMm based Molecular Dynamics docking algorithm. The crystal structure of the protein complex covalently formed between proteinase K and MeOSuc-AAPA-CH₂Cl (SEQ ID NO:1) was used as a starting structure for molecular simulation (PDB CODE: 3PRK; Wolf W M et al. J. Biol. Chem. 1991, 266, 17695). Water molecules were removed from the protein complex, protonated at pH 8.0 and the structure was energy minimized using CHARMm force field with a convergence threshold of 0.05 kcal/mol A. Then, the inhibitor part was removed from the protein complex and was used to build the structures of MeOSuc-AAPV-CH₂Cl (SEQ ID NO:2) (see FIG. 8A), MeOSuc-AAPL-CH₂Cl (SEQ ID NO:10) (see FIG. 9A), MeOSuc-AAAPV-CH₂Cl (SEQ ID NO:8) (see FIG. 8B), MeOSuc-AAAPL-CH₂Cl (SEQ ID NO:7) (see FIG. 9B), MeOSuc-AAAPF-CH₂Cl (SEQ ID NO:9) (see FIG. 11B), MeOSuc-AAPA-CH₂Cl (SEQ ID NO:1) (see FIG. 10), and MeOSuc-AAPF-CH₂Cl (SEQ ID NO:5) (see FIG. 11A). A site sphere with a radius of 13A was created at center of the active site of inhibitor-free proteinase K.
# The CDOCKER algorithm can generate several different orientations for each inhibitor in the active site of proteinase K within the site sphere and perform MD-based simulated annealing followed by final minimization. […] The MD simulation for each orientation consisted of 1000 steps at 2 fs per step and at 1000 K. No inherent restrictions were placed on the conformers of inhibitors.
# proteinase K [2] = target: T1, proteinase K; assay: cell-based or functional assay
# T1 sequence (P06873 106-384 limits assumed): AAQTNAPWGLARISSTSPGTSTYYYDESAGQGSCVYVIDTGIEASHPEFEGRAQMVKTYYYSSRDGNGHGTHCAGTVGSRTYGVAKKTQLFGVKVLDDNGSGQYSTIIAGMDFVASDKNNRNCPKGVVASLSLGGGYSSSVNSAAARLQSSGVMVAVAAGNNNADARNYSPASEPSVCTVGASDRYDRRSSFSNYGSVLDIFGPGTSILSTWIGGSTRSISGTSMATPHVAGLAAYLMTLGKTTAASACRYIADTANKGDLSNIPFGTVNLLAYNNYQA
Molecule,"ΔΔGBind (total binding free energy, calculated) (proteinase K [1])","effective inhibitory concentration, beta-actin RT-qPCR from HeLa cell lysates (proteinase K [2])","lowest inhibitory concentration in the stopped mixture, indirect linked RT-qPCR assay (proteinase K [2])"
AAAPF (HELM PEPTIDE1{[COC(=O)CCC(=O)[*:2]].A.A.A.P.F.[ClC[*:1]]}$$$$V2.0; SMILES COC(=O)CCC(=O)N[C@@H](C)C(=O)N[C@@H](C)C(=O)N[C@@H](C)C(=O)N1CCC[C@H]1C(=O)N[C@@H](Cc1ccccc1)C(=O)CCl) [MeOSuc-AlaAlaAlaProPhe-CH2Cl],9.95 kcal/mol,0.1 mM,–
MeOSuc-AAPV-CH2Cl (also called MeOSuc-AAPV-CH2Cl; MSVCK) [methoxysuccinyl-AlaAlaProVal-chloromethyl ketone],-6.63 kcal/mol,0.5 mM,~0.25 mM
"AAPL (HELM PEPTIDE1{[COC(=O)CCC(=O)[*:2]].A.A.P.L.[ClC[*:1]]}$$$$V2.0; SMILES COC(=O)CCC(=O)N[C@@H](C)C(=O)N[C@@H](C)C(=O)N1CCC[C@H]1C(=O)N[C@@H](CC(C)C)C(=O)CCl, also called MeOSuc-AAPL-CH2Cl; methoxysuccinyl-AAPL-chloromethyl ketone) [MeOSuc-AlaAlaProLeu-CH2Cl]",-12.7 kcal/mol,~0.1 mM,–
AAAPV (HELM PEPTIDE1{[COC(=O)CCC(=O)[*:2]].A.A.A.P.V.[ClC[*:1]]}$$$$V2.0; SMILES COC(=O)CCC(=O)N[C@@H](C)C(=O)N[C@@H](C)C(=O)N[C@@H](C)C(=O)N1CCC[C@H]1C(=O)N[C@H](C(=O)CCl)C(C)C) [MeOSuc-AlaAlaAlaProVal-CH2Cl],1.32 kcal/mol,0.5 mM,–
"AAAPL (HELM PEPTIDE1{[COC(=O)CCC(=O)[*:2]].A.A.A.P.L.[ClC[*:1]]}$$$$V2.0; SMILES COC(=O)CCC(=O)N[C@@H](C)C(=O)N[C@@H](C)C(=O)N[C@@H](C)C(=O)N1CCC[C@H]1C(=O)N[C@@H](CC(C)C)C(=O)CCl, also called MeOSuc-AAAPL-CH2Cl; A3PL) [MeOSuc-AlaAlaAlaProLeu-CH2Cl]",-30.9 kcal/mol,~0.1 mM,~0.05 mM

# Now from value to molecule:
"ΔΔGBind (total binding free energy, calculated) (proteinase K [1])","effective inhibitory concentration, beta-actin RT-qPCR from HeLa cell lysates (proteinase K [2])","lowest inhibitory concentration in the stopped mixture, indirect linked RT-qPCR assay (proteinase K [2])",Molecule
-14.6 kcal/mol,–,–,methoxysuccinyl-AlaAlaProAla-chloromethyl ketone (peptide)
-2.55 kcal/mol,–,~0.05 mM,"AAPF (HELM PEPTIDE1{[COC(=O)CCC(=O)[*:2]].A.A.P.F.[ClC[*:1]]}$$$$V2.0; SMILES COC(=O)CCC(=O)N[C@@H](C)C(=O)N[C@@H](C)C(=O)N1CCC[C@H]1C(=O)N[C@@H](Cc1ccccc1)C(=O)CCl, also called MeOSuc-AAPF-CH2Cl; MSFCK) [MeOSuc-AlaAlaProPhe-CH2Cl]"
–,–,~0.5 mM,APAL (HELM PEPTIDE1{[COC(=O)CCC(=O)[*:2]].A.P.A.L.[ClC[*:1]]}$$$$V2.0; SMILES COC(=O)CCC(=O)N[C@@H](C)C(=O)N1CCC[C@H]1C(=O)N[C@@H](C)C(=O)N[C@@H](CC(C)C)C(=O)CCl) [MeOSuc-AlaProAlaLeu-CH2Cl]
